US10239925B2, “Peptides and combination of peptides for use in immunotherapy against ovarian cancer and other cancers” (IMMATICS BIOTECHNOLOGIES GMBH, priority 2015, dated 2019)

Biological target: HLA-A*02:01 (Homo sapiens, UniProt P04439, D140Y/D185E/D98H/E176V/E277Q/G131W/G231S/I119V/I121R/I166T/I218V/L300P/L318F/N151K/N90K/P208A/P217A/Q86G/Q94H/R138H/R169H/T345S)
Assay: MHC binding assay (UV-ligand exchange, anti-β2m ELISA, peptide exchange yield)
Details: binding to HLA-A*02:01
Summary of the method: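 Yield of stabilized complexes quantified via the β2m light chain in an ELISA (streptavidin capture, 100-fold diluted monomers, HRP anti-β2m 2 ug/ml at 37 °C, TMB, A450). The complexes come from UV-triggered replacement of a photocleavable ligand by the candidate peptide.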

Row | Substance | Peptide exchange (MHC class I binding score, peptide exchange yield)
1 | 229 (RLPGPLGTV; listed as Homo sapiens) [compound 229] | “++” (>20% = ++)
2 | 230 (ILVDWLVEV; listed as Homo sapiens) [compound 230] | “+” (>10% = +)
3 | 231 (FLSPQQPPLLL; listed as Homo sapiens) [compound 231] | “++” (>20% = ++)
4 | 232 (ALLEAQDVELYL; listed as Homo sapiens) [compound 232] | “++” (>20% = ++)
5 | 233 (VLSETLYEL; listed as Homo sapiens) [compound 233] | “++” (>20% = ++)
6 | 234 (ALMEDTGRQML; listed as Homo sapiens) [compound 234] | “++” (>20% = ++)
7 | 235 (YLNDLHEVLL; listed as Homo sapiens) [compound 235] | “++++” (>75% = ++++)
8 | 236 (GLLEAKVSL; listed as Homo sapiens) [compound 236] | “+++” (>50 = +++)
9 | 237 (ALLEASGTLLL; listed as Homo sapiens) [compound 237] | “++++” (>75% = ++++)
10 | 238 (YLISFQTHI; listed as Homo sapiens) [compound 238] | “+++” (>50 = +++)
11 | 239 (AAFAGKLLSV; listed as Homo sapiens) [compound 239] | “+++” (>50 = +++)
12 | 240 (ILLEQAFYL; listed as Homo sapiens) [compound 240] | “+++” (>50 = +++)
13 | 241 (SLVEVNPAYSV; listed as Homo sapiens) [compound 241] | “+++” (>50 = +++)

The next lines start with the values.

Row | Peptide exchange (MHC class I binding score, peptide exchange yield) | Substance
14 | “+++” (>50 = +++) | 243 (LLLNELPSV; listed as Homo sapiens) [compound 243]
15 | “+++” (>50 = +++) | 244 (SLFGGTEITI; listed as Homo sapiens) [compound 244]
16 | “+++” (>50 = +++) | 245 (SMIDDLLGV; listed as Homo sapiens) [compound 245]
17 | “+++” (>50 = +++) | 246 (LLWEVVSQL; listed as Homo sapiens) [compound 246]
18 | “+++” (>50 = +++) | 248 (FLFPNQYVDV; listed as Homo sapiens) [compound 248]
19 | “+++” (>50 = +++) | 249 (LLDGFLVNV; listed as Homo sapiens) [compound 249]
20 | “+++” (>50 = +++) | 250 (ALSEEGLLVYL; listed as Homo sapiens) [compound 250]
21 | “++” (>20% = ++) | 251 (ALYTGFSILV; listed as Homo sapiens) [compound 251]
22 | “+++” (>50 = +++) | 252 (LLIGTDVSL; listed as Homo sapiens) [compound 252]
23 | “++” (>20% = ++) | 253 (GLDAATATV; listed as Homo sapiens) [compound 253]
24 | “+++” (>50 = +++) | 254 (TLLAFIMEL; listed as Homo sapiens) [compound 254]
25 | “+++” (>50 = +++) | 255 (VLASYNLTV; listed as Homo sapiens) [compound 255]
26 | “+++” (>50 = +++) | 256 (FLPPEHTIVYI; listed as Homo sapiens) [compound 256]
27 | “+++” (>50 = +++) | 257 (SIFSAFLSV; listed as Homo sapiens) [compound 257]
28 | “++” (>20% = ++) | 258 (ELAERVPAI; listed as Homo sapiens) [compound 258]
